Reference: US20240309109A1 (MorphoSys, published 2024)
Numbering of substitutions follows the chain as printed.

B1: MOR06204 Fab (Fab, V domains shown)
VH: QVQLVESGGGLVQPGGSLRLSCAASGFTFSSYAMNWVRQAPGKGLEWVSHIRKKNTSYTTEYAASVKGRFTISRDNSKNTLYLQMNSLRAEDTAVYYCAREDGSYMTDYFAYWGQGTLVTVSS
VL: DIELTQPPSVSVAPGQTARISCSGDNIGHYYVSWYQQKPGQAPVLVIYSDSNRPSGIPERFSGSNSGNTATLTISGTQAEDEADYYCQSYNGTYVFGGGTKLTVL
notes: Fab format
B2: MOR06214 Fab (Fab, V domains shown)
VH: QVQLVESGGGLVQPGGSLRLSCAASGFTFSSYAMNWVRQAPGKGLEWVSNIQRVGSTYYADSVKGRFTISRDNSKNTLYLQMNSLRAEDTAVYYCAREDGSYMTDYFAYWGQGTLVTVSS
VL: B1 VL
notes: Fab format
B3: MOR06200 Fab (Fab, V domains shown)
VH: QVQLVESGGGLVQPGGSLRLSCAASGFTFSSYYMNWVRQAPGKGLEWVSAISNNGNVTYYADSVKGRFTISRDNSKNTLYLQMNSLRAEDTAVYYCARDLPLVYTGFAYWGQGTLVTVSS
VL: DIELTQPPSVSVAPGQTARISCSGDNLRHYYVYWYQQKPGQAPVLVIYGDSKRPSGIPERFSGSNSGNTATLTISGTQAEDEADYYCQTYTGGASLVFGGGTKLTVL
notes: Fab format
B4: MOR06183 Fab (Fab, V domains shown)
VH: B3 VH with A50G, S52N, N53M, N54E, G55S, N56T, V57R, T58I
VL: B3 VL
notes: Fab format
B5: MOR06195 Fab (Fab, V domains shown)
VH: B3 VH with N53G, N56G, V57H
VL: B3 VL
notes: Fab format
B6: MOR06192 Fab (Fab, V domains shown)
VH: B3 VH with A50V, N53P, N54G, N56E, V57A, T58K, Y59S
VL: B3 VL
notes: Fab format
B7: MOR06185 Fab (Fab, V domains shown)
VH: B3 VH with N53M, N56D, V57Y, T58I, Y59S
VL: B3 VL
notes: Fab format
B8: MOR06189 Fab (Fab, V domains shown)
VH: B3 VH with S52N, N53M, N54I, Y59N
VL: B3 VL
notes: Fab format
B9: MOR06190 Fab (Fab, V domains shown)
VH: B3 VH with A50Y, S52N, N53P, N56M, V57M, Y59N
VL: B3 VL
notes: Fab format
B10: MOR06188 Fab (Fab, V domains shown)
VH: B3 VH with N53T, N56W, V57Q
VL: B3 VL
notes: Fab format
B11: MOR06187 Fab (Fab, V domains shown)
VH: B3 VH with N53S, N56D, V57I
VL: B3 VL
notes: Fab format
B12: MOR06184 Fab (Fab, V domains shown)
VH: B3 VH with N53H, N54D, T58K
VL: B3 VL
notes: Fab format
B13: MOR06197 Fab (Fab, V domains shown)
VH: B3 VH with N53M, N54D, N56V, V57Y, T58K
VL: B3 VL
notes: Fab format
B14: MOR06201 Fab (Fab, V domains shown)
VH: B3 VH with N53M, N54H, N56D, V57T
VL: B3 VL
notes: Fab format
B15: MOR06186 Fab (Fab, V domains shown)
VH: B3 VH with S52N, N53L, N54S, N56S, V57A, T58K
VL: B3 VL
notes: Fab format
B16: MOR06214 IgG (antibody, V domains shown)
VH: B2 VH
VL: DIELTQPPSVSVAPGQTARISCSGDNIGHYYVSWYQQKPGQAPVLVIYSDSNRPSGIPERFSGSNSGNTATLTISGTQAEDEADYYCQSYNGTYVFGGGTKLTVLG
notes: copies: 2 + 2
B17: MOR06204 IgG (antibody, V domains shown)
VH: B1 VH
VL: B16 VL
notes: copies: 2 + 2
B18: MOR06195 IgG (antibody, V domains shown)
VH: B3 VH with N53G, N56G, V57H
VL: DIELTQPPSVSVAPGQTARISCSGDNLRHYYVYWYQQKPGQAPVLVIYGDSKRPSGIPERFSGSNSGNTATLTISGTQAEDEADYYCQTYTGGASLVFGGGTKLTVLG
notes: copies: 2 + 2
B19: MOR06192 IgG (antibody, V domains shown)
VH: B3 VH with A50V, N53P, N54G, N56E, V57A, T58K, Y59S
VL: B18 VL
notes: copies: 2 + 2
B20: MOR06197 IgG (antibody, V domains shown)
VH: B3 VH with N53M, N54D, N56V, V57Y, T58K
VL: B18 VL
notes: copies: 2 + 2
B21: MOR06201 IgG (antibody, V domains shown)
VH: B3 VH with N53M, N54H, N56D, V57T
VL: B18 VL
notes: copies: 2 + 2
B22: MOR03102 Fab (Fab, V domains shown)
VH: QVQLQESGPGLVKPGETLSLTCTVSGGSISGNYWSWIRQAPGKGLEWIGDYHGSTYYNPSLKGRVTISVDTSKNQFSLKLSSVTAEDTAVYYCAREQYHWGLAWTGFDNWGQGTLVTVSS
VL: DIELTQPPSVSVAPGQTARISCSGDNLGHYYVSWYQQKPGQAPVLVIYDDSDRPSGIPERFSGSNSGNTATLTISGTQAEDEADYYCGAYAMHMTVFGGGTKLTVLG
notes: Fab format
B23: MOR03131 Fab (Fab, V domains shown)
VH: QVQLKESGPALVKPTQTLTLTCTFSGFSLSNSGVGVGWIRQPPGKALEWLADIYSDTTKRYSTSLKTRLTISKDTSKNQVVLTMTNMDPVDTATYYCARYGEAYFDYWGQGTLVTVSS
VL: DIELTQPPSVSVAPGQTARISCSGDNLGNFYVHWYQQKPGQAPVLVIYEDSNRPSGIPERFSGSNSGNTATLTISGTQAEDEADYYCSSWDMYRTIFVFGGGTKLTVLG
notes: Fab format
B24: MOR03089 Fab (Fab, V domains shown)
VH: QVQLKESGPALVKPTQTLTLTCTFSGFSLSSDGMGVGWIRQPPGKALEWLALIDWDDDKRYSTSLKTRLTISKDTSKNQVVLTMTNMDPVDTATYYCARFNWFYRLAFVNPDVWGQGTLVTVSS
VL: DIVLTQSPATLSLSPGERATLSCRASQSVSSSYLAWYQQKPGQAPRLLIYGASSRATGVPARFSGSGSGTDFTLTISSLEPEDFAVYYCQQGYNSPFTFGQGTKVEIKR
notes: Fab format
B25: MOR03086 Fab (Fab, V domains shown)
VH: QVQLVESGGGLVQPGGSLRLSCAASGFTFTSYYMHWVRQAPGKGLEWVSYIDSSGSSTYYADSVKGRFTISRDNSKNTLYLQMNSLRAEDTAVYYCARQLMPFGGYFDVWGQGTLVTVSS
VL: DIQMTQSPSSLSASVGDRVTITCRASQNISQWLNWYQQKPGKAPKLLIYGASNLQSGVPSRFSGSGSGTDFTLTISSLQPEDFATYYCQQYYDLPNTFGQGTKVEIKR
notes: Fab format
B26: MOR03085 Fab (Fab, V domains shown)
VH: QVQLVQSGAEVKKPGASVKVSCKASGYTFTGYYINWVRQAPGQGLEWMGWIFPNGGSTGYAQKFQGRVTMTRDTSISTAYMELSSLRSEDTAVYYCARGNIFIFDYWGQGTLVTVSS
VL: DIVLTQPPSVSGAPGQRVTISCSGSSSNIGNNYVSWYQQLPGTAPKLLIYGDDQRPSGVPDRFSGSKSGTSASLAITGLQSEDEADYYCQSYGTFSSFVFGGGTKLTVLG
notes: Fab format
B27: MOR03101 Fab (Fab, V domains shown)
VH: QVQLKESGPALVKPTQTLTLTCTFSGFSLSTSRVGVSWIRQPPGKALEWLAHIDWNDDKYYSTSLKTRLTISKDTSKNQVVLTMTNMDPVDTATYYCAREDRLLGGYGYDVWGQGTLVTVSS
VL: DIELTQPPSVSVAPGQTARISCSGDSLGSYYVHWYQQKPGQAPVLVIGDDTKRPSGIPERFSGSNSGNTATLTISGTQAEDEADYYCGSRTGYNNSFVFGGGTKLTVLG
notes: Fab format
B28: MOR03129 Fab (Fab, V domains shown)
VH: QVQLVESGGGLVQPGGSLRLSCAASGFTFSNYSMNWVRQAPGKGLEWVSYIYGGGSYTYYADSVKGRFTISRDNSKNTLYLQMNSLRAEDTAVYYCARQAGMYFDVWGQGTLVTVSS
VL: DIELTQPPSVSVAPGQTARISCSGDNLGSKVVSWYQQKPGQAPVLVIYYDNKRPSGIPERFSGSNSGNTATLTISGTQAEDEADYYCQSYTFESGSVVFGGGTKLTVLG
notes: Fab format

target: CD38 (antigen of the Bioveris affinity determination) (Homo sapiens (Human), UniProt P28907 45-300, limits assumed); assay: Bioveris, Fab format

Going from B1 to B2, the Kd rises from 0.0585 nM to 0.0936 nM (1.6-fold).

First: B3
Second: B4
The Kd of the first is 2.3-fold higher: 0.0599 nM for the first, 0.026 nM for the second.

B5 and B6 are within 1.5-fold of each other in Kd: 0.0557 nM for the first, 0.0747 nM for the second.

Going from B7 to B8, the Kd rises from 0.0137 nM to 0.0247 nM (1.8-fold).

B9 and B10 are within 1.5-fold of each other in Kd: 0.0488 nM for the first, 0.0593 nM for the second.

B11 and B12 are within 1.5-fold of each other in Kd: 0.0454 nM for the first, 0.0662 nM for the second.

B13 and B14 are within 1.5-fold of each other in Kd: 0.0127 nM for the first, 0.0186 nM for the second.

With B15 the Kd was 0.00509 nM.

target: T1, human CD38 Fc-fusion aa 45-300 (human, UniProt P28907 45-300); assay: SPR (Biacore), Fab format
T1 construct: Expressed in HEK293 behind a human Vkappa leader, which is left out here; also called CD38-Fc fusion protein; CD38 Fc-Fusion protein

First: B1
Second: B2
The Kd of the first is 4.3-fold higher: 22.7 nM for the first, 5.26 nM for the second. The second binds more tightly here.

First: B3
Second: B4
The Kd of the first is 1.7-fold lower: 7.92 nM for the first, 13.5 nM for the second.

B5 and B6 are within 1.5-fold of each other in Kd: 4.52 nM for the first, 5.01 nM for the second.

B7 and B8 are within 1.5-fold of each other in Kd: 4.39 nM for the first, 4.95 nM for the second.

Compared with B9, B10 is 4-fold lower in Kd: 15.7 nM for the first, 3.96 nM for the second.

B11 and B12 are within 1.5-fold of each other in Kd: 12.5 nM for the first, 9.68 nM for the second.

B13 and B14 are within 1.5-fold of each other in Kd: 4.81 nM for the first, 6.81 nM for the second.

For B15, the Kd was 4.62 nM.

target: T2, human CD38 on cells (human, UniProt P28907 1-300); assay: FACS Scatchard on RPMI8226 cells
T2 construct: The cell that carried CD38 is named under assay in each row; also called CD38 on Raji, RPMI8226, OPM2, CCRF-CEM, human erythrocytes, CD38 CHO-K1 transfectants

B1 and B2 are within 1.5-fold of each other in EC50: 6.36 nM for the first, 5.32 nM for the second.

First: B3
Second: B4
The EC50 of the first is 5.6-fold lower: 5.02 nM for the first, 28.1 nM for the second.

B5 and B6 are within 1.5-fold of each other in EC50: 5.6 nM for the first, 7.07 nM for the second.

B7 and B8 are within 1.5-fold of each other in EC50: 7.3 nM for the first, 9.41 nM for the second.

Going from B9 to B10, the EC50 rises from 11.7 nM to 22.7 nM (1.9-fold). The first is the more potent here.

First: B11
Second: B12
The EC50 of the first is 4.2-fold higher: 16.9 nM for the first, 4.01 nM for the second. The second is the more potent here.

B13 and B14 are within 1.5-fold of each other in EC50: 6.92 nM for the first, 9 nM for the second.

With B15 the EC50 was 6.47 nM.

target: T1, human CD38 Fc-fusion aa 45-300; assay: ELISA on CD38 Fc-fusion protein, IgG format

Going from B16 to B17, the “ELISA CD38 Fc-Fusion protein (% Reactivity of MOR03087)” value falls from 109% to 56%.

Compared with B18, B19 is lower in “ELISA CD38 Fc-Fusion protein (% Reactivity of MOR03087)” value: 155% for the first, 111% for the second.

First: B20
Second: B21
The “ELISA CD38 Fc-Fusion protein (% Reactivity of MOR03087)” value of the first is higher: 138% for the first, 137% for the second.

target: T1, human CD38 Fc-fusion aa 45-300; assay: SPR (Biacore), Fab on immobilized CD38 Fc-fusion

Compared with B22, B23 is 7-fold higher in Kd: 64 nM for the first, 451 nM for the second.

First: B24
Second: B25
The Kd of the first is 11-fold higher: 340 nM for the first, 30 nM for the second.

First: B26
Second: B27
The Kd of the first is 2.6-fold lower: 122 nM for the first, 314 nM for the second. The first binds more tightly here.

With B28 the Kd was 43 nM.
